Measured values published in article PMC2788865 (The Journal of Biological Chemistry, 2009).

Target: Lys^75-FL-calmodulin (FL-CaM) (human, UniProt P0DP23 1-149, 5-(4,6-dichlorotriazinyl)aminofluorescein (FL) on Lys75)
Assay: fluorescence polarisation

B1: Ca^2+/calmodulin-dependent protein kinase IV (CaMKIV) (enzyme)
chain: MLKVTVPSCPSSPCSSVTSSTENLVPDYWIDGSKRDPLSDFFEVESELGRGATSIVYRCKQKGTQKPYALKVLKKTVDKKIVRTEIGVLLRLSHPNIIKLKEIFETPTEISLVLELVTGGELFDRIVEKGYYSERDAADAVKQILEAVAYLHENGIVHRDLKPENLLYATPAPDAPLKIADFGLSKIVEHQVLMKTVCGTPGYCAPEILRGCAYGPEVDMWSVGIITYILLCGFEPFYDERGDQFMFRRILNCEYYFISPWWDEVSLNAKDLVKKLIVLDPKKRLTTFQALQHPWVTGKAANFVHMDTAQKKLQEFNARRKLKAAVKAVVASSRLGSASSSHTNIQESNKASSEAQPAQDGKDKTDPLENKMQAGDHEAAKAAADETMKLQSEEVEEEEGVKEEEEEEEEEEETSRMVPQEPEDRLETDDQEMKRNSEETLKSVEEEMDPKAEEEAAAVGLGVPPQQDAILPEY
**Q.** Does B1 bind?
**A.** binds
